Assay results: patent US20210388087A1
Substitutions are numbered along the chain they refer to. Names may count otherwise. Values belong to the binder of their own block, whether it stands above or below them.

Tests used:
Human CD137 ECD (human) = test: Biacore SPR, vs parent H183/L072
[1] = molecular target: Human CD3eg linker (human); test: SPR; fold vs parent H183/L072
[2] = molecular target: Human CD3eg linker (human); test: affinity relative to template H183/L072, single-mutation scan
[3] = molecular target: CD3 epsilon homodimer protein (UniProt P07766); test: SPR, antibody over immobilised CD3e homodimer
[4] = molecular target: T1, Human CD3eg linker (human); test: SPR Biacore T200, 25 C, Ab captured on anti-human Fc, antigen as analyte; conditions: remark: other sources report otherwise
T1 chain: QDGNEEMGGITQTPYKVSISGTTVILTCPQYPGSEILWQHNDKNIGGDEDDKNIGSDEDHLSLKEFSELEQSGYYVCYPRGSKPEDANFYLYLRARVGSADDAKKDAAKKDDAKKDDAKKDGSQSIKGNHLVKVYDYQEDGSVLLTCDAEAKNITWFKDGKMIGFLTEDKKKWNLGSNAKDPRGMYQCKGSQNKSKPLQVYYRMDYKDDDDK

[5] = molecular target: Human CD3eg linker (human); test: SPR (Biacore T200), 37 degrees C, antibody captured by anti-human Fc on CM4 chip, recombinant human CD3 as analyte, 1:1 model

Sequence of CD3 epsilon homodimer protein (P07766 23-126): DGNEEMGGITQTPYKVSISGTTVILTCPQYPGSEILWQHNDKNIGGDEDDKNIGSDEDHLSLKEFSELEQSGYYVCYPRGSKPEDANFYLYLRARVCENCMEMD
Sequence of Human CD137 ECD (human) (chain, as listed by the source limits assumed): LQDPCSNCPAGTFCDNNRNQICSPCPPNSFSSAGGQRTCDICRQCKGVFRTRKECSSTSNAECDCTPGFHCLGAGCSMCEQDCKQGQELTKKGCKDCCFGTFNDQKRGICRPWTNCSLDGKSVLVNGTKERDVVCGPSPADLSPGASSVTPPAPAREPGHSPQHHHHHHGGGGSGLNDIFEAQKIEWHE

fold change of affinity (Human CD137 ECD (human)): 0 fold
B1: H183/L072 VL H34E (antibody, name in Kabat numbering, V domains shown)
VH: QVQLVESGGGLVQPGRSLRLSCAASGFTFSNAWMHWVRQAPGKGLEWVAQIKDKGNAYAAYYAPSVKGRFTISRDDSKNSIYLQMNSLKTEDTAVYYCHYVHYASASTVLPAFGVDAWGQGTTVTVSS
VL: DIVMTQSPLSLPVTPGEPASISCQASQELVHMNRNTYLEWYQQKPGQAPRLLIYKVSNRFPGVPDRFSGSGSGTDFTLKISRVEAEDVGVYYCAQGTSVPFTFGQGTKLEIK

fold change of affinity (Human CD137 ECD (human)): 0 fold
B2: H183/L072 VL H34K (antibody, name in Kabat numbering, V domains shown)
VH: B1 VH
VL: B1 VL with E39K

fold change of affinity (Human CD137 ECD (human)): 0 fold
fold change of affinity [1]: 0 fold
B3: H183/L072 VL Y32R (antibody, name in Kabat numbering, V domains shown)
VH: B1 VH
VL: B1 VL with Y37R, E39H

fold change of affinity for CD3 [2]: 0 fold
B4: H183/L072 with V51Y (Kabat) in VL dBBDu072L (antibody, name in Kabat numbering, V domains shown)
VH: B1 VH
VL: B1 VL with E39H, V56Y

KD ratio to GLS3000 [3]: 4460
B5: CE115HA000/GLS3000 N28D (antibody, IgG1, name in Kabat numbering, V domains shown)
VH: QVQLVESGGGVVQPGRSLRLSCAASGFTFSNAWMHWVRQAPGKGLEWVAQIKAKSNNYATYYAESVKGRFTISRDDSKNSLYLQMNSLKTEDTAVYYCRYVHYGAYYGVDAWGQGTTVTVSS
VL: B1 VL with Q24R, A25S, E28S, M32S, N33D, E39H, P61S, A94G, S98Q, F101Y

fold change of affinity (Human CD137 ECD (human)): 0 fold
fold change of affinity [1]: 0 fold
B6: H183/L072 VL L33R (antibody, name in Kabat numbering, V domains shown)
VH: B1 VH
VL: B1 VL with L38R, E39H

Kd [4]: 2280 nM
koff [4]: 0.101 s⁻¹
kon [4]: 44300 M⁻¹ s⁻¹
B7: H1647L0581 (antibody, V domains shown)
VH: B1 VH with T28K, A32T, M34F, K54Y, G55Y, A57D, V109L, F113E
VL: B1 VL with A25P, L29V, E39H, V99H

fold change of affinity for CD3 [2]: 0 fold
B8: H183/L072 with G91Y (Kabat) in VL dBBDu072L (antibody, name in Kabat numbering, V domains shown)
VH: B1 VH
VL: B1 VL with E39H, G96Y

fold change of affinity for CD3 [2]: 0 fold
B9: H183/L072 with Q90Y (Kabat) in VL dBBDu072L (antibody, name in Kabat numbering, V domains shown)
VH: B1 VH
VL: B1 VL with E39H, Q95Y

fold change of affinity (Human CD137 ECD (human)): 0.06 fold
B10: H183/L072 VL R54N (antibody, name in Kabat numbering, V domains shown)
VH: B1 VH
VL: B1 VL with E39H, R59N

fold change of affinity (Human CD137 ECD (human)): 0 fold
fold change of affinity [1]: 0 fold
B11: H183/L072 VL A25F (antibody, name in Kabat numbering, V domains shown)
VH: B1 VH
VL: B1 VL with A25F, E39H

fold change of affinity (Human CD137 ECD (human)): 0 fold
fold change of affinity [1]: 0 fold
B12: H183/L072 VL L27bR (antibody, name in Kabat numbering, V domains shown)
VH: B1 VH
VL: B1 VL with L29R, E39H

fold change of affinity (Human CD137 ECD (human)): 0 fold
B13: H183/L072 VL Y32K (antibody, name in Kabat numbering, V domains shown)
VH: B1 VH
VL: B1 VL with Y37K, E39H

fold change of affinity (Human CD137 ECD (human)): 0 fold
fold change of affinity [1]: 0 fold
B14: H183/L072 VL H34R (antibody, name in Kabat numbering, V domains shown)
VH: B1 VH
VL: B1 VL with E39R

fold change of affinity (Human CD137 ECD (human)): 0 fold
B15: H183/L072 VL A25H (antibody, name in Kabat numbering, V domains shown)
VH: B1 VH
VL: B1 VL with A25H, E39H

KD ratio to GLS3000 [3]: 85800
B16: CE115HA000/GLS3000 H34R (antibody, IgG1, name in Kabat numbering, V domains shown)
VH: B5 VH
VL: B1 VL with Q24R, A25S, E28S, M32S, E39R, P61S, A94G, S98Q, F101Y

fold change of affinity (Human CD137 ECD (human)): 0 fold
B17: H183/L072 VL A25R (antibody, name in Kabat numbering, V domains shown)
VH: B1 VH
VL: B1 VL with A25R, E39H

fold change of affinity (Human CD137 ECD (human)): 0 fold
fold change of affinity [1]: 0 fold
B18: H183/L072 VL L27bY (antibody, name in Kabat numbering, V domains shown)
VH: B1 VH
VL: B1 VL with L29Y, E39H

Kd [5]: 17.5 nM
koff [5]: 0.00147 s⁻¹
kon [5]: 83700 M⁻¹ s⁻¹
B19: Ctrl/Ctrl × CD3 trispecific antibody (antibody, part only; not given: control Fvs, constant regions, Fc, V domains shown, not shown: another chain or arm of the molecule; a dimerising Fc or GST; large carriers)
VH: QVQLVESGGGLVQPGRSLRLSCAASGFTFSNAWMHWVRQAPGKGLEWVAQIKDRANSYNTYYAESVKGRFTISRDDSKNSIYLQMNSLKTEDTAVYYCRYVHYTTYAGSSFSYGVDAWGQGTTVTVSS
VL: B1 VL with Q24R, A25S, E28P, M32S, E39H, P61S, A94G, S98Q, F101Y

fold change of affinity for CD3 [2]: 0 fold
B20: H183/L072 with K50Y (Kabat) in VL dBBDu072L (antibody, name in Kabat numbering, V domains shown)
VH: B1 VH
VL: B1 VL with E39H, K55Y

fold change of affinity for CD3 [2]: 0 fold
B21: H183/L072 with P95Y (Kabat) in VL dBBDu072L (antibody, name in Kabat numbering, V domains shown)
VH: B1 VH
VL: B1 VL with E39H, P100Y

fold change of affinity (Human CD137 ECD (human)): 0 fold
fold change of affinity [1]: 0 fold
B22: H183/L072 VL A25W (antibody, name in Kabat numbering, V domains shown)
VH: B1 VH
VL: B1 VL with A25W, E39H

fold change of affinity (Human CD137 ECD (human)): 0 fold
fold change of affinity [1]: 0 fold
B23: H183/L072 VL A25Y (antibody, name in Kabat numbering, V domains shown)
VH: B1 VH
VL: B1 VL with A25Y, E39H

fold change of affinity (Human CD137 ECD (human)): 0 fold
fold change of affinity [1]: 0 fold
B24: H183/L072 VL H34Y (antibody, name in Kabat numbering, V domains shown)
VH: B1 VH
VL: B1 VL with E39Y

fold change of affinity (Human CD137 ECD (human)): 0 fold
B25: H183/L072 VL F55A (antibody, name in Kabat numbering, V domains shown)
VH: B1 VH
VL: B1 VL with E39H, F60A

fold change of affinity (Human CD137 ECD (human)): 0 fold
B26: H183/L072 VL L33K (antibody, name in Kabat numbering, V domains shown)
VH: B1 VH
VL: B1 VL with L38K, E39H

KD ratio to GLS3000 [3]: 72100
B27: CE115HA000/GLS3000 G91S (antibody, IgG1, name in Kabat numbering, V domains shown)
VH: B5 VH
VL: B1 VL with Q24R, A25S, E28S, M32S, E39H, P61S, A94G, G96S, S98Q, F101Y

fold change of affinity (Human CD137 ECD (human)): 0 fold
B28: H183/L072 VL A25K (antibody, name in Kabat numbering, V domains shown)
VH: B1 VH
VL: B1 VL with A25K, E39H

fold change of affinity (Human CD137 ECD (human)): 0 fold
B29: H183/L072 VL T31H (antibody, name in Kabat numbering, V domains shown)
VH: B1 VH
VL: B1 VL with T36H, E39H

fold change of affinity for CD3 [2]: 0 fold
B30: H183/L072 with T92Y (Kabat) in VL dBBDu072L (antibody, name in Kabat numbering, V domains shown)
VH: B1 VH
VL: B1 VL with E39H, T97Y

fold change of affinity (Human CD137 ECD (human)): 0 fold
fold change of affinity [1]: 0 fold
B31: H183/L072 VL H34W (antibody, name in Kabat numbering, V domains shown)
VH: B1 VH
VL: B1 VL with E39W

KD ratio to GLS3000 [3]: 13600
B32: CE115HA000/GLS3000 H27dD (antibody, IgG1, name in Kabat numbering, V domains shown)
VH: B5 VH
VL: B1 VL with Q24R, A25S, E28S, H31D, M32S, E39H, P61S, A94G, S98Q, F101Y

fold change of affinity (Human CD137 ECD (human)): 0 fold
B33: H183/L072 VL H34A (antibody, name in Kabat numbering, V domains shown)
VH: B1 VH
VL: B1 VL with E39A

fold change of affinity (Human CD137 ECD (human)): 0 fold
fold change of affinity [1]: 0 fold
B34: H183/L072 VL H34F (antibody, name in Kabat numbering, V domains shown)
VH: B1 VH
VL: B1 VL with E39F

Kd [5]: 17.8 nM
koff [5]: 0.00151 s⁻¹
kon [5]: 85000 M⁻¹ s⁻¹
B35: GPC3/Ctrl × CD3 trispecific antibody (antibody, part only; not given: control Fv, constant regions, Fc, V domains shown, not shown: another chain or arm of the molecule; a dimerising Fc or GST; large carriers; small tags and cut ends)
VH 1: B19 VH
VL 1: B1 VL with Q24R, A25S, E28P, M32S, E39H, P61S, A94G, S98Q, F101Y
VH 2: QVQLVQSGAEVKKPGASVTVSCKASGYTFTDYEMHWIRQPPGEGLEWIGAIDGPTPDTAYSEKFKGRVTLTADKSTSTAYMELSSLTSEDTAVYYCTRFYSYTYWGQGTLVTVSS
VL 2: B1 VL with Q24R, A25S, E28P, M32S, E39H, P61S, A94G, S98Q, F101Y
